These results are taken from patent publication US7078203 (UNIVERSITY OF NORTH CAROLINA AT CHAPEL HILL, dated 2006).

For test [1], the target named is CDC53 fused to the Gal4 DNA binding domain (pGBT8-CDC53) (yeast; S. cerevisiae, UniProt P04386 1-147; Q12018 1-815). The experiment in a line: yeast two-hybrid. The text has this:
(§1) The yeast genome contains four cullin members, CDC53, CUL-B (ORF YGR003w), CUL-C(ORF YJL047c) and APC2. Each gene was fused in-frame with the Gal4 DNA binding domain and co-transformed with ScROC1 or ScAPC11 fused in-frame with the GAL4 activation domain. ScAPC2 was self-activating as a bait and was fused in-framed with the GAL4 activation domain and tested with ScROC1 fused in-frame with the DNA binding domain.

The target in test [2] is CUL-B (ORF YGR003w) fused to the Gal4 DNA binding domain (yeast; S. cerevisiae, UniProt P04386 1-147; P53202 1-744). The experiment in a line: yeast two-hybrid.
From the text: as §1

Test [3] has as its target T1, HA-epitope tagged human ROC1 (human, UniProt P62877 1-108).
T1 construct: Expressed by transfection in mammalian cells; tag written first because of the name HA-ROC1; also called HA-ROC1
As to the kind of experiment: co-immunoprecipitation with anti-HA from [35S]-methionine labelled transfected cells.

In test [4] the target is human ROC1 (untagged: in vitro translated or endogenous in HeLa and Saos-2 cells) (human, UniProt P62877 1-108). The experiment in a line: anti-ROC1 immunopurification from HeLa lysate, microsequencing of co-precipitated 70 to 120 kDa proteins.
human ROC1 (untagged: in vitro translated or endogenous in HeLa and Saos-2 cells), sequence (P62877 whole entry, the tested form may be a part): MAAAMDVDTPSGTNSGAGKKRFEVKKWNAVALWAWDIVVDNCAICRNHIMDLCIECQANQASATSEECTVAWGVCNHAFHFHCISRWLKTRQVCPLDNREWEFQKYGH
Test [5] has as its target T2, mouse APC2 fused to the Gal4 DNA-binding domain (yeast; mouse, UniProt P04386 1-147; Q8BZQ7 15-837, limits assumed).
T2 construct: also called GAL4BD-APC2
The experiment in a line: yeast two-hybrid, -LWH with 5 mM 3-AT.

The target of test [6] is myc-epitope tagged APC2 (mouse, UniProt Q8BZQ7 15-837). The experiment in a line: co-immunoprecipitation from transfected HeLa cells.
myc-epitope tagged APC2, sequence (Q8BZQ7 15-837): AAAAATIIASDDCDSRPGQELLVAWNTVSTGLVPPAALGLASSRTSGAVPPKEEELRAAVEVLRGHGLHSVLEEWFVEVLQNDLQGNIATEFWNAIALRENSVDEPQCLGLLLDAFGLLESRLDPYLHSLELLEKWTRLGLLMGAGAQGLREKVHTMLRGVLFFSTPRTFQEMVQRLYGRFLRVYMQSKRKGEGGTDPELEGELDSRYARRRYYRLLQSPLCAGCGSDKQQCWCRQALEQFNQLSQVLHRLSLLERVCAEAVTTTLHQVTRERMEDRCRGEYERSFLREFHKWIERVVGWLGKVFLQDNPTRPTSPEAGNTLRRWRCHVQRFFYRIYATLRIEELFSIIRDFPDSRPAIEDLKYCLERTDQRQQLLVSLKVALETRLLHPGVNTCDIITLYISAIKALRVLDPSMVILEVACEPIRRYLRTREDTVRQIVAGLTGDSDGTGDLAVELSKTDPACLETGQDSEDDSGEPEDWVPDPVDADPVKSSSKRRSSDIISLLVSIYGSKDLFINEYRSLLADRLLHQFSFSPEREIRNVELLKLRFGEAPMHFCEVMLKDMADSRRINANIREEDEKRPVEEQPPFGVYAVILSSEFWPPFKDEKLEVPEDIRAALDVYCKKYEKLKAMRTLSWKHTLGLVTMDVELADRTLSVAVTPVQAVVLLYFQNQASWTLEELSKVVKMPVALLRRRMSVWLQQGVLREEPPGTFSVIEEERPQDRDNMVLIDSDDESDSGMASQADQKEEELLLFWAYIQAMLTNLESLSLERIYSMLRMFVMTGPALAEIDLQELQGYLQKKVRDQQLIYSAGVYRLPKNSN

T1 sequence (P62877 whole entry): as the sequence (P62877 whole entry, the tested form may be a part) above

B1: ScAPC11 fused to the GAL4 activation domain (other, S. cerevisiae, UniProt Q12157 1-165, looked up, not shown: large carriers)
chain: MKVKINEVHSVFAWSWHIPSTSDEDAANNDPIGNDEDEDVCGICRASYNGTCPSCKFPGDQCPLVIGLCHHNFHDHCIYRWLDTPTSKGLCPMCRQTFQLQKGLAINDAHVQKFVEIVSRRREEMIEEGVAEEFVDFDEPIRQNTDNPIGRQQVDTILDEDFLLR
notes: also called yeast APC11
Take B1: the binding result in test [1] and in test [2] was “no binding” in each case.

B2: myc-epitope tagged mouse cullin 4A (other, UniProt Q3TCH7 1-759, looked up, not shown: small tags and cut ends)
chain: MADEGPRKGSVSALMGRTNGLTKPAALAGGPAKPGGTGGSRKLVIKNFRDRPRLPDNYTQDTWRKLHEAVKAIQSSTSIRYNLEELYQAVENLCSHKVSPTLYKQLRQVCEDHVQAQILPFREDSLDSVLFLKKINTCWQDHCRQMIMIRSIFLFLDRTYVLQNSMLPSIWDMGLELFRNHIISDRMVQSKTIDGILLLIGRERSGEAVDRSLLRSLLSMLSDLQVYKDSFELKFLEETNCLYAAEGQRLMQDREVPEYLNHVSKRLEEEADRVITYLDHSTQKPLIACVEKQLLGEHLTAILQKGLEHLLDENRVPDLTQMYQLFSRVKGGQHALLQHWSEYIKTFGTTIVINPEKDKDMVQDLLDFKDKVDHVVEVCFQRNERFINLMKESFETFINKRPNKPAELIAKHVDSKLRAGNKEATDEELERILDKIMILFRFIHGKDVFEAFYKKDLAKRLLVGKSASVDAEKSMLSKLKHECGAAFTSKLEGMFKDMELSKDIMVHFKQHMQNQSAPGPIDLTVNILTMGYWPTYTPMEVHLPPEMVRLQEVFKTFYLGKHSGRKLQWQTTLGHAVLKADFKEGKKEFQVSLFQTLVLLMFNEGDGFSFEEIKMATGIEDSELRRTLQSLACGKARVLIKSPKGKEVEDGDKFIFNADFKHKLFRIKINQIQMKETVEEQVSTTERVFQDRQYQIDAAIVRIMKMRKTLGHNLLVSELYNQLKFPVKPGDLKKRIESLIDRDYMERDKDSPNQYHYVA
notes: also called myc-mCUL4A
As for B2, the binding result in test [3] was “binds”.

B3: human CUL2 (endogenous in HeLa cells) (other, UniProt Q13617 1-745, looked up)
chain: MSLKPRVVDFDETWNKLLTTIKAVVMLEYVERATWNDRFSDIYALCVAYPEPLGERLYTETKIFLENHVRHLHKRVLESEEQVLVMYHRYWEEYSKGADYMDCLYRYLNTQFIKKNKLTEADLQYGYGGVDMNEPLMEIGELALDMWRKLMVEPLQAILIRMLLREIKNDRGGEDPNQKVIHGVINSFVHVEQYKKKFPLKFYQEIFESPFLTETGEYYKQEASNLLQESNCSQYMEKVLGRLKDEEIRCRKYLHPSSYTKVIHECQQRMVADHLQFLHAECHNIIRQEKKNDMANMYVLLRAVSTGLPHMIQELQNHIHDEGLRATSNLTQENMPTLFVESVLEVHGKFVQLINTVLNGDQHFMSALDKALTSVVNYREPKSVCKAPELLAKYCDNLLKKSAKGMTENEVEDRLTSFITVFKYIDDKDVFQKFYARMLAKRLIHGLSMSMDSEEAMINKLKQACGYEFTSKLHRMYTDMSVSADLNNKFNNFIKNQDTVIDLGISFQIYVLQAGAWPLTQAPSSTFAIPQELEKSVQMFELFYSQHFSGRKLTWLHYLCTGEVKMNYLGKPYVAMVTTYQMAVLLAFNNSETVSYKELQDSTQMNEKELTKTIKSLLDVKMINHDSEKEDIDAESSFSLNMNFSSKRTKFKITTSMQKDTPQEMEQTRSAVDEDRKMYLQAAIVRIMKARKVLRHNALIQEVISQSRARFNPSISMIKKCIEVLIDKQYIERSQASADEYSYVA
notes: also called cullin 2
For B3, the binding result in test [4] is listed as “binds”.

B4: full length human ROC2 fused to the Gal4 DNA activation domain (other, not shown: large carriers)
chain: MFSLKKWNPVAMWSWDVECDTCAICRVQVMDACLRCQAENKQEDCVVVWGECNHSFHNCCMSLWVKQNNRCPLCQQDWVVQRIGK
notes: Yeast two-hybrid prey
As for B4, the binding result in test [5] is reported as “no binding”.

B5: HA tagged human ROC2 (other, not shown: small tags and cut ends)
chain: B4 chain
notes: Migrates as a doublet in transfected cells; also called HA-ROC2
As for B5, the binding result in test [6] was “no binding”.
